B1: IKZF1 (parent)
chain: RDPFECNMCGYHSQDRYEFSSHIT
B2: ZNF207 (parent)
chain: YQGGPPRPPMGMRPPVMSQGGRY

The text below walks through data of the supplement of paper PMC10567573.
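Also: lentivirally expressed fusions sorted by FACS into six bins by GFP to DsRed ratio, PSI derived from sequencing read proportions per bin multiplied by bin number.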

In one data set the parent is B1. In words: protein stability index of a GFP-peptide fusion (GPS, HEK-293T) (PSI 1-6); higher = more stable. As to conditions: c terminus: a fixed tail appended.
Turning to RDPFECNMCGYHSQDRYRFSSHIT, the protein stability index was found to be 1.99.
Still for that read-out and setting: the value for RDPFECNMCGYHSQDRYTFSSHIT was 1.54.
Turning to RDPFECNMCGYHSQDRYYFSSHIT, the protein stability index came out at 1.43.
The same measure, in the same setting: the value for RDPFECNMCGYHSQDRYPFSSHIT was 1.67; that for RDPFECNMCGYHSQDRYWFSSHIT was 1.51.
On the same count and under the same terms, the figure for RDPFECNMCGYHSQDRYSFSSHIT is 2.11.
The same measure, in the same setting: the figure for RDPFECNMCGYHSQDRYQFSSHIT is 1.79; for RDPFECNMCGYHSQDRYVFSSHIT it is 2.72.
RDPFECNMCGYHSQDRYENSSHIT: the protein stability index was determined as 3.27.
As to RDPFECNMCGYHSQDRYESSSHIT, the protein stability index is 2.6.
For the variant RDPFECNMCGYHSQDRYEESSHIT, the protein stability index was determined as 3.35.
Same read-out and setting: the value for RDPFECNMCGYHSQDRYEISSHIT was 2.4; that for RDPFECNMCGYHSQDRYERSSHIT was 2.38.
RDPFECNMCGYHSQDRYEYSSHIT: the protein stability index stood at 2.47.
Take RDPFECNMCGYHSQDRYEKSSHIT: the protein stability index is 3.06.
The same measure, in the same setting: the figure for RDPFECNMCGYHSQDRYEVSSHIT is 2.08; for RDPFECNMCGYHSQDRYEHSSHIT it is 3.13.
On to RDPFECNMCGYHSQDRYETSSHIT, for which the protein stability index was 2.94.
Same read-out and setting: the value for RDPFECNMCGYHSQDRYEWSSHIT was 1.44; that for RDPFECNMCGYHSQDRYEQSSHIT was 3.14.
On the same count and under the same terms, the value for RDPFECNMCGYHSQDRYEASSHIT was 2.59.
As to RDPFECNMCGYHSQDRYECSSHIT, the protein stability index stood at 2.39.
As for RDPFECNMCGYHSQDRYEGSSHIT, the protein stability index was 3.13.
On to RDPFECNMCGYHSQDRYEPSSHIT, for which the protein stability index came to 3.
On the same count and under the same terms, the figure for RDPFECNMCGYHSQDRYELSSHIT is 1.61; for RDPFECNMCGYHSQDRYEMSSHIT it is 2.28; for RDPFECNMCGYHSQDRYEDSSHIT it is 3.29.

The variants in the next data set derive from B2. The data set is described as above. As to conditions: c terminus: native.
For YQGGPARPPMGMRPPVMSQGGRY, the protein stability index came out at 1.6.
Still for that read-out and setting: the figure for YQGGPCRPPMGMRPPVMSQGGRY is 1.96.
Still for that read-out and setting: the figure for YFGGPPRPPMGMRPPVMSQGGRY is 1.65; for YPGGPPRPPMGMRPPVMSQGGRY it is 1.72.
On the same count and under the same terms, the figure for YMGGPPRPPMGMRPPVMSQGGRY is 2.05.
Take YKGGPPRPPMGMRPPVMSQGGRY: the protein stability index is 2.57.
The same measure, in the same setting: the value for YLGGPPRPPMGMRPPVMSQGGRY was 2.34; that for YWGGPPRPPMGMRPPVMSQGGRY was 2.1.
Still for that read-out and setting: the value for YYGGPPRPPMGMRPPVMSQGGRY was 2.89; that for YEGGPPRPPMGMRPPVMSQGGRY was 2.4; that for YDGGPPRPPMGMRPPVMSQGGRY was 2.16.
On the same count and under the same terms, the value for YGGGPPRPPMGMRPPVMSQGGRY was 3.02.
On to YAGGPPRPPMGMRPPVMSQGGRY, for which the protein stability index was found to be 2.19.
The same measure, in the same setting: the figure for YNGGPPRPPMGMRPPVMSQGGRY is 2.45; for YQGGHPRPPMGMRPPVMSQGGRY it is 1.92.
On the same count and under the same terms, the figure for YQGGMPRPPMGMRPPVMSQGGRY is 1.22; for YQGGTPRPPMGMRPPVMSQGGRY it is 3.09; for YQGGGPRPPMGMRPPVMSQGGRY it is 2.99.
As to YQGGAPRPPMGMRPPVMSQGGRY, the protein stability index is 2.27.
The same measure, in the same setting: the value for YQGGEPRPPMGMRPPVMSQGGRY was 2.81; that for YQGGKPRPPMGMRPPVMSQGGRY was 2.56.
The same measure, in the same setting: the value for YQGGVPRPPMGMRPPVMSQGGRY was 2.82; that for YQGGCPRPPMGMRPPVMSQGGRY was 1.61; that for YQGGLPRPPMGMRPPVMSQGGRY was 2.34.
Take YQGGQPRPPMGMRPPVMSQGGRY: the protein stability index amounted to 2.62.
On the same count and under the same terms, the figure for YQGGIPRPPMGMRPPVMSQGGRY is 1.71; for YQGGNPRPPMGMRPPVMSQGGRY it is 2.12; for YQLGPPRPPMGMRPPVMSQGGRY it is 2.31.
On the same count and under the same terms, the value for YQMGPPRPPMGMRPPVMSQGGRY was 1.59.
Still for that read-out and setting: the figure for YQIGPPRPPMGMRPPVMSQGGRY is 3.37; for YQVGPPRPPMGMRPPVMSQGGRY it is 1.43.
For the variant YQKGPPRPPMGMRPPVMSQGGRY, the protein stability index was determined as 2.89.
On the same count and under the same terms, the value for YQSGPPRPPMGMRPPVMSQGGRY was 1.47; that for YQHGPPRPPMGMRPPVMSQGGRY was 1.5.
Still for that read-out and setting: the figure for YQAGPPRPPMGMRPPVMSQGGRY is 2.62; for YQQGPPRPPMGMRPPVMSQGGRY it is 2.32.
The same measure, in the same setting: the figure for YQWGPPRPPMGMRPPVMSQGGRY is 1.39.
As for YQEGPPRPPMGMRPPVMSQGGRY, the protein stability index was 2.33.
As to YQYGPPRPPMGMRPPVMSQGGRY, the protein stability index was 2.42.
Same read-out and setting: the value for YQNGPPRPPMGMRPPVMSQGGRY was 1.38; that for YQGIPPRPPMGMRPPVMSQGGRY was 2.34; that for YQGVPPRPPMGMRPPVMSQGGRY was 2.74.
On the same count and under the same terms, the value for YQGNPPRPPMGMRPPVMSQGGRY was 3.23; that for YQGRPPRPPMGMRPPVMSQGGRY was 2.51; that for YQGWPPRPPMGMRPPVMSQGGRY was 3.5.
Same read-out and setting: the value for YQGYPPRPPMGMRPPVMSQGGRY was 2.05.
As for YQGHPPRPPMGMRPPVMSQGGRY, the protein stability index was 2.6.
On to YQGEPPRPPMGMRPPVMSQGGRY, for which the protein stability index worked out at 2.69.
The same measure, in the same setting: the figure for YQGDPPRPPMGMRPPVMSQGGRY is 3.56; for YQGLPPRPPMGMRPPVMSQGGRY it is 1.5; for YQGMPPRPPMGMRPPVMSQGGRY it is 1.46.
Same read-out and setting: the figure for YQGSPPRPPMGMRPPVMSQGGRY is 3.05.
Same read-out and setting: the value for YQGCPPRPPMGMRPPVMSQGGRY was 2.52; that for YQGQPPRPPMGMRPPVMSQGGRY was 3.54; that for YQGKPPRPPMGMRPPVMSQGGRY was 2.78.
As to MQGGPPRPPMGMRPPVMSQGGRY, the protein stability index is 3.87.
Take WQGGPPRPPMGMRPPVMSQGGRY: the protein stability index was found to be 2.49.
On the same count and under the same terms, the value for AQGGPPRPPMGMRPPVMSQGGRY was 3.11; that for RQGGPPRPPMGMRPPVMSQGGRY was 3.21.
The same measure, in the same setting: the figure for IQGGPPRPPMGMRPPVMSQGGRY is 2.89.
Still for that read-out and setting: the value for KQGGPPRPPMGMRPPVMSQGGRY was 3.55.
Consider NQGGPPRPPMGMRPPVMSQGGRY, for which the protein stability index was 3.31.
Still for that read-out and setting: the value for HQGGPPRPPMGMRPPVMSQGGRY was 2.91.
Take GQGGPPRPPMGMRPPVMSQGGRY: the protein stability index was found to be 3.87.
Still for that read-out and setting: the figure for CQGGPPRPPMGMRPPVMSQGGRY is 3.27.
Still for that read-out and setting: the value for TQGGPPRPPMGMRPPVMSQGGRY was 2.64.
Still for that read-out and setting: the figure for SQGGPPRPPMGMRPPVMSQGGRY is 1.67; for QQGGPPRPPMGMRPPVMSQGGRY it is 3.65.
